{"source": "patent US20050182242A1", "about": "“Global analysis of protein activities using proteome chips” (priority 2001, published 2005)", "molecules": {"B1": {"name": "THI13: yeast protein involved in nucleotide metabolism, GST-HisX6 fusion (protein, UniProt Q07748 1-340, looked up)", "4-amino-5-hydroxymethyl-2-meth …": "MSTDKITFLLNWQPTPYHIPIFLAQTKGYFKEQGLDIAILEPTNPSDVTELIGSGKVDMGLKAMIHTLAAKARGFPVTSVASLLDEPFTGVLYLKGSGITEDFQSLKGKKIGYVGEFGKIQIDELTKHYGMKPEDYTAVRCGMNVAKYIIEGKIDAGIGIECMQQVELEEYLAKQGRPASDAKMLRIDKLACLGCCCFCTVLYICNDEFLKKNPEKVRKFLKAIKKATDYVLADPVKAWKEYIDFKPQLNNDLSYKQYQRCYAYFSSSLYNVHRDWKKVTGYGKRLAILPPDYVSNYTNEYLSWPEPEEVSDPLEAQRLMAIHQEKCRQEGTFKRLALPA", "modifications": "GST-His6 tag", "notes": "yeast protein involved in nucleotide metabolism, GST-HisX6 fusion"}, "B2": {"name": "Sqt1p: yeast protein that interacts with Rp110p (protein, UniProt P35184 1-431, looked up)", "Ribosome assembly protein SQT1": "MEPQEEFITTEEVEQEIVPTVEVEQDVPVDIEGENDDDDEMMNDDEEALEVDMSNNSLTYFDKHTDSVFAIGHHPNLPLVCTGGGDNLAHLWTSHSQPPKFAGTLTGYGESVISCSFTSEGGFLVTADMSGKVLVHMGQKGGAQWKLASQMQEVEEIVWLKTHPTIARTFAFGATDGSVWCYQINEQDGSLEQLMSGFVHQQDCSMGEFINTDKGENTLELVTCSLDSTIVAWNCFTGQQLFKITQAEIKGLEAPWISLSLAPETLTKGNSGVVACGSNNGLLAVINCNNGGAILHLSTVIELKPEQDELDASIESISWSSKFSLMAIGLVCGEILLYDTSAWRVRHKFVLEDSVTKLMFDNDDLFASCINGKVYQFNARTGQEKFVCVGHNMGVLDFILLHPVANTGTEQKRKVITAGDEGVSLVFEVPN"}, "B3": {"name": "Ils1p: isoleucyl-tRNA synthetase (protein, UniProt P09436 1-1072, looked up)", "Isoleucine--tRNA ligase, …": "MSESNAHFSFPKEEEKVLSLWDEIDAFHTSLELTKDKPEFSFFDGPPFATGTPHYGHILASTIKDIVPRYATMTGHHVERRFGWDTHGVPIEHIIDKKLGITGKDDVFKYGLENYNNECRSIVMTYASDWRKTIGRLGRWIDFDNDYKTMYPSFMESTWWAFKQLHEKGQVYRGFKVMPYSTGLTTPLSNFEAQQNYKDVNDPAVTIGFNVIGQEKTQLVAWTTTPWTLPSNLSLCVNADFEYVKIYDETRDRYFILLESLIKTLYKKPKNEKYKIVEKIKGSDLVGLKYEPLFPYFAEQFHETAFRVISDDYVTSDSGTGIVHNAPAFGEEDNAACLKNGVISEDSVLPNAIDDLGRFTKDVPDFEGVYVKDADKLIIKYLTNTGNLLLASQIRHSYPFCWRSDTPLLYRSVPAWFVRVKNIVPQMLDSVMKSHWVPNTIKEKRFANWIANARDWNVSRNRYWGTPIPLWVSDDFEEVVCVGSIKELEELTGVRNITDLHRDVIDKLTIPSKQGKGDLKRIEEVFDCWFESGSMPYASQHYPFENTEKFDERVPANFISEGLDQTRGWFYTLAVLGTHLFGSVPYKNVIVSGIVLAADGRKMSKSLKNYPDPSIVLNKYGADALRLYLINSPVLKAESLKFKEEGVKEVVSKVLLPWWNSFKFLDGQIALLKKMSNIDFQYDDSVKSDNVMDRWILASMQSLVQFIHEEMGQYKLYTVVPKLLNFIDELTNWYIRFNRRRLKGENGVEDCLKALNSLFDALFTFVRAMAPFTPFLSESIYLRLKEYIPEAVLAKYGKDGRSVHFLSYPVVKKEYFDEAIETAVSRMQSVIDLGRNIREKKTISLKTPLKTLVILHSDESYLKDVEALKNYIIEELNVRDVVITSDEAKYGVEYKAVADWPVLGKKLKKDAKKVKDALPSVTSEQVREYLESGKLEVAGIELVKGDLNAIRGLPESAVQAGQETRTDQDVLIIMDTNIYSELKSEGLARELVNRIQKLRKKCGLEATDDVLVEYELVKDTIDFEAIVKEHFDMLSKTCRSDIAKYDGSKTDPIGDEEQSINDTIFKLKVFKL"}, "B4": {"name": "Ypt31p: yeast protein with GTP-binding activity (protein, UniProt P38555 2-223, looked up)", "GTP-binding protein YPT31/YPT8": "SSEDYGYDYDLLFKIVLIGDSGVGKSNLLSRFTKNEFNMDSKSTIGVEFATRTLEIDGKRIKAQIWDTAGQERYRAITSAYYRGAVGALIVYDISKSSSYENCNHWLSELRENADDNVAVGLIGNKSDLAHLRAVPTEESKTFAQENQLLFTETSALNSENVDKAFEELINTIYQKVSKHQMDLGDSSANGNANGASAPNGPTISLTPTPNENKKANGNNCC"}}, "key": {"[1]": {"test_system": "phosphatidylcholine (PC) liposomes", "test": "Yeast proteome chip probed with PC liposomes", "conditions": "liposome binding signal on yeast proteome chip, Cy3-streptavidin detection", "method_in_brief": "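Binding of arrayed yeast proteins to sonicated PC liposomes, with or without 5% (w/w) phosphoinositide, is scored by streptavidin fluorescence on the biotinylated lipid tracer.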"}, "total yeast genomic DNA": {"test_system": "total yeast genomic DNA", "test": "Yeast proteome chip probed with labeled genomic DNA", "format": "binding", "conditions": "Cy3-labeled genomic DNA, visual inspection", "source_text": "Protein-DNA and protein-RNA interactions are important for many fundamental biological functions such as transcription regulation, chromosome segregation and maintenance, and RNA transport and processing (Williamson, 2000, Nat. Struct. Biol. 7(10):834-7). To explore the possibility of using a proteome chip to identify proteins that bind to DNA or RNA molecules, total yeast genomic DNA was labeled using Cy3-CTP and Klenow fragment, and polyA^+ was labeled using a biotinylated psoralen-derivative (31). Each probe was incubated with a different proteome chip (FIG. 3A).\nThe protein-nucleic acid interaction was assayed as follows. The nucleic acid robes were labeled as described by Winzeler et al. (1999, Science 285:901). Blocked proteome chips were washed three to five times in PBS buffer, and the extra liquid on the glass surface was removed by tapping the slides vertically on a KIMWIPE™. 200 μl of labeled nuclei acid probe ([…] poly(dC/dG); 100-300 mM NaCl; 50-300 mM HEPES, pH 7.0-8.5; 10 mM MgCl2) was added to the proteome chip and immediately covered by a hydrophobic plastic cover slip (GRACE BIO-LABS™, USA). After trapped air bubbles were removed, the chip was incubated in a humidity chamber in the dark at room temperature (“RT”) for one hour. To remove the cover slip, the chip was immersed into large volume of PBS buffer(>50 ml), so that the slip would float away. The chip was then moved to a second PBS bath (>50 ml) and washed 3×5 min with shaking in the dark at RT. To completely remove the liquid on the chip, the chip was spun to dryness at 1500-2000 rpm for 5-10 min at RT."}, "PI(3,4,5)P3 liposomes": {"test_system": "PI(3,4,5)P3 liposomes", "test": "Yeast proteome chip probed with PI(3,4,5)P3 liposomes", "conditions": "liposome binding signal on yeast proteome chip, Cy3-streptavidin detection"}, "PI(3,4)P2 liposomes": {"test_system": "PI(3,4)P2 liposomes", "test": "Yeast proteome chip probed with PI(3,4)P2 liposomes", "conditions": "liposome binding signal on yeast proteome chip, Cy3-streptavidin detection"}, "PI(3)P liposomes": {"test_system": "PI(3)P liposomes", "test": "Yeast proteome chip probed with PI(3)P liposomes", "conditions": "liposome binding signal on yeast proteome chip, Cy3-streptavidin detection"}, "PI(4,5)P2 liposomes": {"test_system": "PI(4,5)P2 liposomes", "test": "Yeast proteome chip probed with PI(4,5)P2 liposomes", "conditions": "liposome binding signal on yeast proteome chip, Cy3-streptavidin detection"}, "PI(4)P liposomes": {"test_system": "PI(4)P liposomes", "test": "Yeast proteome chip probed with PI(4)P liposomes", "conditions": "liposome binding signal on yeast proteome chip, Cy3-streptavidin detection"}}}
{"molecule": "B1", "values": [{"measurement": "PC", "setting": "[1]", "result": 43.14}, {"measurement": "binding of genomic DNA probe", "setting": "total yeast genomic DNA", "result": "bind the DNA probe"}, {"measurement": "PI(3, 4, 5)P3", "setting": "PI(3,4,5)P3 liposomes", "result": 39.04}, {"measurement": "PI(3, 4)P2", "setting": "PI(3,4)P2 liposomes", "result": 75.66}, {"measurement": "PI(3)P", "setting": "PI(3)P liposomes", "result": 13.75}, {"measurement": "PI(4, 5)P2", "setting": "PI(4,5)P2 liposomes", "result": 64.67}, {"measurement": "PI(4)P", "setting": "PI(4)P liposomes", "result": 55.09}]}
{"molecule": "B2", "values": [{"measurement": "binding of genomic DNA probe", "setting": "total yeast genomic DNA", "result": "tested positive"}]}
{"molecule": "B3", "values": [{"measurement": "binding of genomic DNA probe", "setting": "total yeast genomic DNA", "result": "identified"}]}
{"molecule": "B4", "values": [{"measurement": "binding of genomic DNA probe", "setting": "total yeast genomic DNA", "result": "bind the DNA probe"}]}
